Measured values: patent US20210340201A1 (published 2021)

T1: KRAS G12V peptide on HLA-DRB1*11:01 (human)
T1 peptide: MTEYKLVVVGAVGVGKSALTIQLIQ

T2: KRAS G12V peptide on HLA-DRB1*11:04 (human)
T2 peptide: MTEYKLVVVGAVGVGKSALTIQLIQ

B1: KRAS G12V clone 3 TCR (TCR, V domains shown)
Valpha: AQSVTQPDIHITVSEGASLELRCNYSYGATPYLFWYVQSPGQGLQLLLKYFSGDTLVQGIKGFEAEFKRSQSSFNLRKPSVHWSDAAEYFCAVGRSNSGGYQKVTFGIGTKLQVIP
Vbeta: IHQWPATLVQPVGSPLSLECTVEGTSNPNLYWYRQAAGRGLQLLFYSVGIGQISSEVPQNLSASRPQDRQFILSSKKLLLSDSGFYLCAWSALAGARDTQYFGPGTRLTVL
B2: KRAS G12V clone 9 TCR (TCR, V domains shown)
Valpha: SVSQHNHHVILSEAASLELGCNYSYGGTVNLFWYVQYPGQHLQLLLKYFSGDPLVKGIKGFEAEFIKSKFSFNLRKPSVQWSDTAEYFCAVTVVNAGNNRKLIWGLGTSLAVNP
Vbeta: AGVIQSPRHEVTEMGQEVTLRCKPISGHDYLFWYRQTMMRGLELLIYFNNNVPIDDSGMPEDRFSAKMPNASFSTLKIQPSEPRDSAVYFCASSLGLPGTDTQYFGPGTRLTVL

Key:
[1] = target: T1, KRAS G12V peptide on HLA-DRB1*11:01; experiment: cytokine release
Experimental: (§1) ELISA assays were performed by incubating 50,000 T cells in 96 well round bottom plates with 100,000 autologous B cells or B-LCL lines pulsed with specific concentrations of peptides in RPMI (GIBCO™) supplemented with 5% heat inactivated fetal bovine serum. IFN-γ in supernatants was diluted 1:1, 1:10, and 1:100 and quantitated using human IFN-γ ELISA kit (EBIOSCIENCE™) in technical duplicate or triplicate. HLA blocking experiments were carried out by adding 20 μg/ml antibody anti class I (BIOLEGEND®, cat. 311411) anti HLA DR (BIOLEGEND® clone L243, cat. 307611) or HLA-DQ (ABCAM™, clone spv-I3, cat. ab23632) to the antigen presenting cells one hour prior to adding peptide. ELISpot assays were performed by incubating 20,000-100,000 T cells with 200,000 autologous B cells pulsed with 20 μg/ml of each peptide in CTL medium using the human IFN-γ ELISPOT-PRO™ kit (MABTECH™) according to the manufacturer's instructions. For intracellular IFN-γ staining, PBMC (100,000) were incubated with autologous B cells (100,000) pulsed with the indicated peptides (20 μg/ml) in the presence of brefeldin A (GOLGIPLUG™, BD BIOSCIENCES™) and then fixed and permeabilized using the BD™ intracellular staining kit (BD BIOSCIENCES™) and analyzed using a FACSCANTO™ II flow cytometer.

[2] = target: T2, KRAS G12V peptide on HLA-DRB1*11:04; experiment: cytokine release
Experimental: as §1

Row | Binder | binding result [1] | binding result [2]
1 | B1 | recognises | recognises
2 | B2 | recognises | recognises
